# Molecular target: HLA-A*02:01 (Homo sapiens, UniProt P04439, D140Y/D185E/D98H/E176V/E277Q/G131W/G231S/I119V/I121R/I166T/I218V/L300P/L318F/N151K/N90K/P208A/P217A/Q86G/Q94H/R138H/R169H/T345S)
# Experiment: MHC binding assay (UV-ligand exchange, β2m ELISA, peptide exchange yield)
# Conditions: binding of HLA-class I restricted peptides to HLA-A*02:01, UV-ligand exchange
# Procedure, shortened: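 Peptide-MHC complexes formed by UV-ligand exchange, cleaving a UV-sensitive placeholder peptide in favour of the test peptide. Exchange yield measured by ELISA: monomers diluted 100-fold onto streptavidin-coated plates, 1 h 37 °C, detected with 2 ug/ml HRP anti-β2m and TMB, absorbance at 450 nm.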
row,Substance,"Peptide exchange (MHC class I binding score, peptide exchange yield)"
1,180 (FQIDPHSGLVTV; listed as Homo sapiens) [compound 180],“++” (≥20% = ++)
2,181 (LLWAGTAFQV; listed as Homo sapiens) [compound 181],“+++” (≥50 = +++)
3,182 (MLLEAPGIFL; listed as Homo sapiens) [compound 182],“+++” (≥50 = +++)
4,183 (FGLDLVTEL; listed as Homo sapiens) [compound 183],“+++” (≥50 = +++)
5,184 (YLMDINGKMWL; listed as Homo sapiens) [compound 184],“+++” (≥50 = +++)
6,185 (FLIDDKGYTL; listed as Homo sapiens) [compound 185],“++” (≥20% = ++)
7,186 (TLFFQQNAL; listed as Homo sapiens) [compound 186],“++” (≥20% = ++)
8,187 (RQISIRGIVGV; listed as Homo sapiens) [compound 187],“+++” (≥50 = +++)
9,188 (GLFPVTPEAV; listed as Homo sapiens) [compound 188],“+++” (≥50 = +++)
10,189 (ALQRKLPYV; listed as Homo sapiens) [compound 189],“+++” (≥50 = +++)
11,190 (FLSSLTETI; listed as Homo sapiens) [compound 190],“+++” (≥50 = +++)
12,191 (LLQEGQALEYV; listed as Homo sapiens) [compound 191],“++” (≥20% = ++)
13,192 (KMLDGASFTL; listed as Homo sapiens) [compound 192],“+++” (≥50 = +++)
14,193 (QLLDADGFLNV; listed as Homo sapiens) [compound 193],“+++” (≥50 = +++)
15,194 (ALPLFVITV; listed as Homo sapiens) [compound 194],“+++” (≥50 = +++)
16,195 (GLFADLLPRL; listed as Homo sapiens) [compound 195],“+++” (≥50 = +++)
17,196 (YLYSVEIKL; listed as Homo sapiens) [compound 196],“++++” (≥75% = ++++)
18,197 (ALGPEGGRV; listed as Homo sapiens) [compound 197],“++” (≥20% = ++)
19,198 (KTINKVPTV; listed as Homo sapiens) [compound 198],“+++” (≥50 = +++)
20,199 (ALQDVPLSSV; listed as Homo sapiens) [compound 199],“+++” (≥50 = +++)

row,Substance,"Peptide exchange (MHC class I binding score, peptide exchange yield)"
1,200 (LLFGSVQEV; listed as Homo sapiens) [compound 200],“+++” (≥50 = +++)
2,201 (RLVDYLEGI; listed as Homo sapiens) [compound 201],“+++” (≥50 = +++)
3,202 (ALLDQQGSRWTL; listed as Homo sapiens) [compound 202],“+++” (≥50 = +++)
4,204 (KIAENVEEV; listed as Homo sapiens) [compound 204],“++” (≥20% = ++)
5,205 (SLYPGTETMGL; listed as Homo sapiens) [compound 205],“+++” (≥50 = +++)
6,206 (VLQEGKLQKLAQL; listed as Homo sapiens) [compound 206],“+++” (≥50 = +++)
7,207 (GLTSTNAEV; listed as Homo sapiens) [compound 207],“++” (≥20% = ++)
8,208 (KISPVTFSV; listed as Homo sapiens) [compound 208],“+++” (≥50 = +++)
9,209 (KLIESKHEV; listed as Homo sapiens) [compound 209],“++” (≥20% = ++)
10,210 (LLLNAVLTV; listed as Homo sapiens) [compound 210],“++” (≥20% = ++)
11,211 (LLWPGAALL; listed as Homo sapiens) [compound 211],“++” (≥20% = ++)
12,212 (ALWDQDNLSV; listed as Homo sapiens) [compound 212],“++” (≥20% = ++)
13,214 (FLLDLDPLLL; listed as Homo sapiens) [compound 214],“+++” (≥50 = +++)
14,215 (QLINHLHAV; listed as Homo sapiens) [compound 215],“+++” (≥50 = +++)
15,216 (NLWEDPYYL; listed as Homo sapiens) [compound 216],“+++” (≥50 = +++)
16,217 (ALIHPVSTV; listed as Homo sapiens) [compound 217],“++” (≥20% = ++)
17,218 (SALEELVNV; listed as Homo sapiens) [compound 218],“++” (≥20% = ++)
18,219 (KLSDIGITV; listed as Homo sapiens) [compound 219],“+++” (≥50 = +++)
19,220 (LLQKFVPEI; listed as Homo sapiens) [compound 220],“++” (≥20% = ++)
20,221 (ALYEEGLLL; listed as Homo sapiens) [compound 221],“++” (≥20% = ++)

# Now from value to substance:
row,"Peptide exchange (MHC class I binding score, peptide exchange yield)",Substance
1,“++” (≥20% = ++),222 (NLIENVQRL; listed as Homo sapiens) [compound 222]
2,“+++” (≥50 = +++),223 (ALLENIALYL; listed as Homo sapiens) [compound 223]
3,“+++” (≥50 = +++),224 (TLIDAQWVL; listed as Homo sapiens) [compound 224]
4,“+++” (≥50 = +++),225 (SLLKVLPAL; listed as Homo sapiens) [compound 225]
5,“++” (≥20% = ++),226 (MLYVVPIYL; listed as Homo sapiens) [compound 226]
6,“++” (≥20% = ++),227 (ALMNTLLYL; listed as Homo sapiens) [compound 227]
7,“++” (≥20% = ++),228 (AMQEYIAVV; listed as Homo sapiens) [compound 228]
8,“++” (≥20% = ++),229 (RLPGPLGTV; listed as Homo sapiens) [compound 229]
9,“+” (≥10% = +),230 (ILVDWLVEV; listed as Homo sapiens) [compound 230]
10,“++” (≥20% = ++),231 (FLSPQQPPLLL; listed as Homo sapiens) [compound 231]
11,“++” (≥20% = ++),232 (ALLEAQDVELYL; listed as Homo sapiens) [compound 232]
12,“++” (≥20% = ++),233 (VLSETLYEL; listed as Homo sapiens) [compound 233]
13,“++” (≥20% = ++),234 (ALMEDTGRQML; listed as Homo sapiens) [compound 234]
14,“++++” (≥75% = ++++),235 (YLNDLHEVLL; listed as Homo sapiens) [compound 235]
15,“+++” (≥50 = +++),236 (GLLEAKVSL; listed as Homo sapiens) [compound 236]
16,“++++” (≥75% = ++++),237 (ALLEASGTLLL; listed as Homo sapiens) [compound 237]
17,“+++” (≥50 = +++),238 (YLISFQTHI; listed as Homo sapiens) [compound 238]
18,“+++” (≥50 = +++),239 (AAFAGKLLSV; listed as Homo sapiens) [compound 239]
19,“+++” (≥50 = +++),240 (ILLEQAFYL; listed as Homo sapiens) [compound 240]
20,“+++” (≥50 = +++),241 (SLVEVNPAYSV; listed as Homo sapiens) [compound 241]
21,“++” (≥20% = ++),242 (AIAYILQGV; listed as Homo sapiens) [compound 242]
22,“+++” (≥50 = +++),243 (LLLNELPSV; listed as Homo sapiens) [compound 243]
23,“+++” (≥50 = +++),244 (SLFGGTEITI; listed as Homo sapiens) [compound 244]
24,“+++” (≥50 = +++),245 (SMIDDLLGV; listed as Homo sapiens) [compound 245]
25,“+++” (≥50 = +++),246 (LLWEVVSQL; listed as Homo sapiens) [compound 246]
26,“+++” (≥50 = +++),247 (VLLPNDLLEKV; listed as Homo sapiens) [compound 247]
